“Also recorded” adds a separate entry of the source.
How the values were obtained:
[1] = tested on: NCI-H292 lung cancer cell line; assay: MTS viability of cells transfected with siFra-1 or scramble control (siC); assay type: cell-based, human; settings: 48 h
Procedure: Assays were performed on 96-well microtiter plates after plating of 7.7×10^4 cells/well. […] Cell viability was measured by the colorimetric methoxy-tetrazolium salt (MTS) Assay, CellTiter 96 Aqueous One Solution Cell Proliferation Assay (Promega), per the manufacturer's recommendations. MTS is a tetrazolium salt that undergoes a color change caused by its bioreduction of MTS into a water-soluble formazan. The conversion of MTS into the aqueous-soluble formazan is accomplished by dehydrogenase enzymes found in active mitochondria, with reaction occurring only in living cells. The quantity of formazan product measured by the amount of 490-nm light absorbance is directly proportional to the number of living cells in culture. Briefly, 20 μl of MTS reagent was added per well, and plates incubated at 37° C. for 2-3 h. Finally, the absorbance of each well was read at 490 nm and 650 nm. ΔOD from these two wavelengths were reported as the corrected viability. Fold changes were calculated with respect to the control as a measure of cell viability.
siFra-1 RNA interference (RNAi) duplexes were constructed from sequence information on mature mRNA extracted from the EST database available through the National Center for Biotechnology Information internet site using the open frame region from the cDNA sequence of exon 2 of the Fra-1 gene. The siRNA pool sequences targeting Fra-1 corresponded to the 107-126, 124-143, 230-249 coding regions relative to the first nucleotide of the start codon. The sequences were BLAST-searched (NCBI database) against EST libraries to ensure the specificity of the siRNA molecule. The siRNA duplexes or a scramble control were transfected into cancer lines using Lipofectamine 2000 (Invitrogen) as recommended by the manufacturer. Cells were incubated with complexes overnight, and the medium was replaced the next day. Cells were allowed to recover for 48 hours before treatments.
Cells were transfected with siFra-1 or scramble control (siC) and left to rest for 48 h before treatment. […] The PPARγ inhibitor GW9662 (2 μM) was added to observe the influence of PPARγ.

[2] = i.v. 2.5 mg/kg, twice a week for 2 weeks; previous studies, personal communication; cited from earlier work

Molecule	influence of PPARγ antagonist on the synergistic effect of ranpirnase and rosiglitazone ([1]; GW9662 2 μM added to the combination)	effect of Fra-1 knock-down (siFra-1 vs siC) on efficacy / cell killing of the single drug ([1]; ranpirnase 0.1, 1 or 10 μg/mL, rosiglitazone 10 or 20 μM)	cell viability (MTS) ([1]; ranpirnase 0.1, 1 or 10 μg/mL)	apoptosis induction in vivo [2]	toxicity to the animals [2]
O=C(Nc1ccccc1)c1cc([N+](=O)[O-])ccc1Cl [GW9662, reference compound]	did not significantly modify the synergistic effect of ranpirnase and rosiglitazone	–	–	–	–
ranpirnase (protein, UniProt P22069 1-104, looked up, RNase extracted from Rana pipiens, the Northern leopard frog; registered trademark name ONCONASE™) Protein P-30: QDWLTFQKKHITNTRDVDCDNIMSTNLFHCKDKNTFIYSRPEPVKAICKGIIASKNVLTTSEFYLSDCNVTSRPCKYKLKKSTNKFCVTCENQAPVHFVGVGSC	–	significantly increased the efficacy of ranpirnase alone at all concentrations; also recorded: increases cell killing by ranpirnase (0.1, 1, or 10 μg/mL) in a concentration-dependent manner	reduced viability in a dose-dependent manner	effective in producing apoptosis	non-toxic to the animals

From patent US20090202513A1, “RIBONUCLEASE AND THIAZOLIDINEDIONE COMPOUNDS AND THEIR USE IN METHODS TO TREAT CANCER” (The University of Vermont and State Agriculture College, priority 2008, published 2009)
